The source of these data is patent US20080064629A1, “Amphiregulin as a Protective Agent in Acute Hepatic Injury” (priority 2004, published 2008).

Assay [1] relates to male C57/BL6 mice. Kind of assay: Acute liver damage induced by Jo2 antibody (Fas activation) in mice, treatment with AR. It counts as in vivo, mouse. On the procedure: The experiments were carried out in compliance with the guidelines of the University of Navarra relating to the use of laboratory animals. Cirrhosis was induced with CCl4 in male Wistar rats as described elsewhere [(16) Castilla-Cortazar, I., Garcia, M., Muguerza, B., Quiroga, J., Perez, R., Santidrian, S., Prieto, J. 1997. Hepatoprotective effects of insulin-like growth factor I in rats with carbon tetrachloride-induced cirrhosis. Gastroenterology 113:1682-1691). Two-thirds PH or sham operations were performed on male Wistar rats (150 g) and male C57/BL6 mice (20 g) according to the method of Higgins and Andersen [(17) Higgins, G. M., Andersen, R. M. 1931. Experimental pathology of liver: restoration of liver of the white rat following partial surgical removal. Arch. Pathol. 12:186-202. (18) Latasa, M. U., Boukaba, A., García-Trevijano, E. R., Torres, L., Rodríguez, J. L., Caballería, J., Lu, S. C., López-Rodas, G., Franco, L., Mato, J. M., et al. 2001. Hepatocyte growth factor induces MAT2A expression and histone acetylation in rat hepatocytes. Role in liver regeneration. FASEB J. 10.1096/fj.00-0556fje. (19) Chen, L., Zeng, Y., Yang, H., Lee, T. D., French, S. W., Corrales, F. J., García-Trevijano, E. R., Avila, M. A., Mato, J. M., and Lu, S. C. 2004. Impaired liver regeneration in mice lacking methionine adenosyltransferase 1A. FASEB J. 18: 914-916]. Following sedation, in the sham operated animals the liver was exposed and then returned to the abdominal cavity. Acute liver damage was induced in male C57/BL6 mice (20 g) (n=3-5 per condition and time point) by means of a single intraperitoneal injection of CCl4 (1 μl/g body weight in olive oil) (Sigma, St. Louis, Mo., USA) or Jo2 monoclonal antibody (4 μg/mouse in saline solution) (BD PharMingen, San Diego, Calif., USA) [(5),(20) Martínez-Chantar, M. L., Corrales, F. J., Martínez-Cruz, A., García-Trevijano, E. R., Huang, Z. Z., Chen, L. X., Kanel, G., Avila, M. A., Mato, J. M., Lu, S. C. 2002. Spontaneous oxidative stress and liver tumors in mice lacking methionine adenosyltransferase 1A. FASEB J. 10.1096/fj.02-0078fje]. The controls received an equivalent volume of olive oil or saline solution. In the cases indicated, the mice received an intraperitoneal injection of human recombinant AR (9.5 μg/mouse) (Sigma) 6 and 0.5 h before and 3 h after Jo2 antibody, or 0.5 h before and 12 h after CCl4. At the indicated timepoints, mice were subjected to blood sampling and the sera were analysed for alanine and aspartate aminotransferase (ALT and AST) as described elsewhere [(16) and (21) Lasarte, J. J., Sarobe, P., Boya, P., Casares, N., Arribillaga, L., López-Díaz of Cerio, A., Gorraiz, M., Borrás-Cuesta, F., Prieto, J. 2003. A recombinant adenovirus encoding hepatitis C virus core and E1 proteins protects mice against cytokine-induced liver damage. Hepatology 37: 461-470]. Mice were sacrificed by cervical dislocation, and the livers were quickly frozen in liquid nitrogen, or fixed in formalin and embedded in paraffin for staining with hematoxylin and eosin (H&E).
Caspase-3 activity in mouse hepatocytes and liver tissue lysates was assessed using the Caspase-3/CPP32 colorimetric assay kit (BioVision, Palo Alto, Calif., USA). Cells in culture (5×10^5 per condition) were lysed directly in the lysis buffer supplied with the kit after the corresponding treatments. Liver tissue was homogenized using a Dounce homogenizer in lysis buffer, followed by centrifugation at 15,000 rpm during 10 min. […]

The subject of assay [2] is male C57/BL6 mice. Put plainly: Acute liver damage induced by CCl4 in mice, treatment with AR. It counts as in vivo. To be noted: AR 9.5 μg/mouse i.p. 0.5 h before and 12 h after CCl4. On the procedure: The experiments were carried out in compliance with the guidelines of the University of Navarra relating to the use of laboratory animals. Cirrhosis was induced with CCl4 in male Wistar rats as described elsewhere [(16) Castilla-Cortazar, I., Garcia, M., Muguerza, B., Quiroga, J., Perez, R., Santidrian, S., Prieto, J. 1997. Hepatoprotective effects of insulin-like growth factor I in rats with carbon tetrachloride-induced cirrhosis. Gastroenterology 113:1682-1691). Two-thirds PH or sham operations were performed on male Wistar rats (150 g) and male C57/BL6 mice (20 g) according to the method of Higgins and Andersen [(17) Higgins, G. M., Andersen, R. M. 1931. Experimental pathology of liver: restoration of liver of the white rat following partial surgical removal. Arch. Pathol. 12:186-202. (18) Latasa, M. U., Boukaba, A., García-Trevijano, E. R., Torres, L., Rodríguez, J. L., Caballería, J., Lu, S. C., López-Rodas, G., Franco, L., Mato, J. M., et al. 2001. Hepatocyte growth factor induces MAT2A expression and histone acetylation in rat hepatocytes. Role in liver regeneration. FASEB J. 10.1096/fj.00-0556fje. (19) Chen, L., Zeng, Y., Yang, H., Lee, T. D., French, S. W., Corrales, F. J., García-Trevijano, E. R., Avila, M. A., Mato, J. M., and Lu, S. C. 2004. Impaired liver regeneration in mice lacking methionine adenosyltransferase 1A. FASEB J. 18: 914-916]. Following sedation, in the sham operated animals the liver was exposed and then returned to the abdominal cavity. […] At the indicated timepoints, mice were subjected to blood sampling and the sera were analysed for alanine and aspartate aminotransferase (ALT and AST) as described elsewhere [(16) and (21) Lasarte, J. J., Sarobe, P., Boya, P., Casares, N., Arribillaga, L., López-Díaz of Cerio, A., Gorraiz, M., Borrás-Cuesta, F., Prieto, J. 2003. […]

The next assay concerns hepatocytes. Put plainly: Apoptosis induced by other agents (TNFα plus galactosamine, okadaic acid, TGFβ) in hepatocytes. The assay is classed as cell-based. The note with it: okadaic acid and TGFβ, data not shown.
Another assay deals with rat hepatocytes. Kind of assay: DNA synthesis ([3H]thymidine incorporation) in cultured rat hepatocytes. The assay is classed as cell-based. To be noted: increasing concentrations of AR, 30 h of treatment. On the procedure: For DNA synthesis, rat hepatocytes were plated to a density of 3×10^4 cells/well in 96-well plates coated with collagen in MEM medium supplemented with 10% FCS. Five hours after plating, the medium was changed and cells were maintained in absence of serum for another 20 hours. DNA synthesis was assayed after 30 h of treatment with AR. A pulse of [^3H]thymidine was administered (1 μCi/well)(Amersham Biosciences, Piscataway, N.J., USA) 22 h after the addition of AR. Cells were harvested, and the incorporation of thymidine was determined with a scintillation counter. Evaluations were made of the effect of AR on DNA synthesis in the presence of MEK1 inhibitor, PD98059, PI-3K inhibitor, LY294002, p38 MAPK inhibitor, SB202190, JNK inhibitor, SP600125, and of the EGF-R tyrosine kinase activity inhibitor, PD153035—all supplied by Calbiochem.
Background: Dividing cells build labelled thymidine or BrdU into new DNA.

The mark [3] stands for this setting: 24 h after injection of CCl4 (1 μl/g i.p.).

B1: amphiregulin (protein)
chain: SVRVEQVVKPPQNKTESENTSDKPKRKKKGGKNGKNRRNRKKKNPCNAEFQNFCIHGECKYIEHLEAVTCKCQQEYFGERCGEKSMKTHSMIDSSLSK
notes: polypeptide growth factor belonging to the EGF family, ligand of EGF receptor; human recombinant AR (Sigma) used
For B1, the “serum transaminase (AST and ALT) elevation” value with male C57/BL6 mice [1] (12 h after Jo2 (4 μg/mouse i.p.), AR 9.5 μg/mouse i.p. 6 and 0.5 h before and 3 h after Jo2) is listed as “strongly suppressed”. Besides, in the assay on male C57/BL6 mice [1] (12 h after Jo2, AR 9.5 μg/mouse i.p. 6 and 0.5 h before and 3 h after Jo2), the “liver damage by histopathological analysis” value was “almost completely avoided liver damage”. In addition, the “induction of caspase-3 activity in mouse liver extracts” value in the assay with male C57/BL6 mice [1] (12 h after Jo2 injection, AR 9.5 μg/mouse i.p.) was “strongly inhibited”. In the assay on male C57/BL6 mice [1] (AR and Jo2 versus Jo2 alone, 6 h after injection of Jo2, 12 h (figure legend)), the “levels of Bcl-xL protein in liver (Western blot)” value is given as “greater”. Moreover, the “rupture of caspase-3 (p17 subunit of active caspase-3, Western blot) in liver” value with male C57/BL6 mice [1] (liver extracts after Jo2 injection, AR 9.5 μg/mouse i.p.) was “avoided”. In addition, the “degree of histological damage (liver, H&E)” value with male C57/BL6 mice [2] (24 h after CCl4) was “decreased”. In addition, in the assay on male C57/BL6 mice [2] (setting [3]), the “serum level of ALT” value was “clearly attenuated” and the “serum level of AST” value is reported as “clearly attenuated”. Also, the “cytoprotective activity against apoptosis induced by other agents” value with hepatocytes is “cytoprotective activity was also seen”. Besides, in the assay with rat hepatocytes, the “DNA synthesis, incorporation of [3H]thymidine to DNA” value is “stimulating the incorporation of [^3H]thymidine to DNA in a dose-dependent manner”.
